Laboratory results from paper PMC3527362, “Structural and Functional Insights into (S)-Ureidoglycolate Dehydrogenase, a Metabolic Branch Point Enzyme in Nitrogen Utilization” (PLoS ONE, 2012).
Where a chain is given by its changes, count along the chain named. Names may count otherwise.

Columns and labels:
[1] = target: T1, (S)-ureidoglycolate dehydrogenase (AllD) (Escherichia coli, UniProt P77555); test: X-ray crystal structure, soaking, […] Å; type: binding; details: ternary complex with NADH; soaked with 7.5 mM oxalurate reaction mixture, glyoxylate modelled in subunit A only, pH 8.1
T1 construct: full length, modified pET28b with N-terminal His-tag and TEV site, expressed in E. coli BL21(DE3); tag cut for crystals, kept on mutant enzymes for kinetics; homodimer

[2] = target: T1, (S)-ureidoglycolate dehydrogenase (AllD); test: X-ray crystal structure, soaking, […] Å; type: binding; details: 100 mM NADH soak, pH 8.1; one NADH in each subunit; site includes residues of the other subunit
purified protein [3] = substrate: NC(=O)N[C@@H](O)C(=O)O; test: purified protein; type: biochemical, Escherichia coli; details: 3 mM NAD+ (saturating), 30 °C, value in parentheses is standard error
[4] = target: the molecule itself; test: SEC; size-exclusion chromatography of AllD; conditions not described
purified protein [5] = substrate: NC(=O)c1ccc[n+]([C@@H]2O[C@H](COP(=O)(O)OP(=O)(O)OC[C@H]3O[C@@H](n4cnc5c(N)ncnc54)[C@H](O)[C@@H]3O)[C@@H](O)[C@H]2O)c1; test: purified protein; type: biochemical, Escherichia coli; details: 15.3 mM (S)-ureidoglycolate, 30 °C, value in parentheses is standard error

T1 sequence (P77555 whole entry): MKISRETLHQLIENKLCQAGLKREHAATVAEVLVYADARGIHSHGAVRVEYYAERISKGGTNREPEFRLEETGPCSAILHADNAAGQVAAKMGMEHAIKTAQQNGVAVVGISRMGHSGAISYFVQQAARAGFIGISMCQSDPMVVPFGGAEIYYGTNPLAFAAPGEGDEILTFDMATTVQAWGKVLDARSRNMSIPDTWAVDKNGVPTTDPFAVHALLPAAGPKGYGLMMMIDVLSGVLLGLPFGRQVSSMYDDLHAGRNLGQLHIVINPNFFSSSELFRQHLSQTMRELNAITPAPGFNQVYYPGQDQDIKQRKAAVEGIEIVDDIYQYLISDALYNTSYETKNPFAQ

In the case of `O=CC(=O)O` [glyoxylate], the “X-ray crystal structure, soaking, 1.77 Å” value [1] is reported as 4FJU for the AllD-NADH-glyoxylate ternary complex.

`NC(=O)C1=CN([C@@H]2O[C@H](COP(=O)(O)OP(=O)(O)OC[C@H]3O[C@@H](n4cnc5c(N)ncnc54)[C@H](O)[C@@H]3O)[C@@H](O)[C@H]2O)C=CC1` [NADH] was tested, and the “X-ray crystal structure, soaking, 1.64 Å” value [2] was 4H8A for the AllD-NADH binary complex.

B1: (S)-ureidoglycolate dehydrogenase (AllD) (Escherichia coli K-12; Y52F) (protein)
chain: MKISRETLHQLIENKLCQAGLKREHAATVAEVLVYADARGIHSHGAVRVEYFAERISKGGTNREPEFRLEETGPCSAILHADNAAGQVAAKMGMEHAIKTAQQNGVAVVGISRMGHSGAISYFVQQAARAGFIGISMCQSDPMVVPFGGAEIYYGTNPLAFAAPGEGDEILTFDMATTVQAWGKVLDARSRNMSIPDTWAVDKNGVPTTDPFAVHALLPAAGPKGYGLMMMIDVLSGVLLGLPFGRQVSSMYDDLHAGRNLGQLHIVINPNFFSSSELFRQHLSQTMRELNAITPAPGFNQVYYPGQDQDIKQRKAAVEGIEIVDDIYQYLISDALYNTSYETKNPFAQ
notes: full length, modified pET28b with N-terminal His-tag and TEV site, expressed in E. coli BL21(DE3); tag cut for crystals, kept on mutant enzymes for kinetics; homodimer
In the case of B1, the Km (purified protein [3]; His-tag kept) is reported as 16.82 (3.92) mM, the kcat (purified protein [3]; His-tag kept) is reported as 1.92 s⁻¹ and the kcat/Km (purified protein [3]; His-tag kept) is reported as 110 M⁻¹ s⁻¹.

B2: (S)-ureidoglycolate dehydrogenase (AllD) (Escherichia coli K-12; S140A) (protein)
chain: B1 chain with F52Y, S140A
notes: as for B1
In the case of B2, the Km (purified protein [3]; His-tag kept) is reported as 12.38 (2.19) mM, the kcat (purified protein [3]; His-tag kept) is reported as 1.29 s⁻¹ and the kcat/Km (purified protein [3]; His-tag kept) is reported as 100 M⁻¹ s⁻¹.

B3: (S)-ureidoglycolate dehydrogenase (AllD) from Escherichia coli (enzyme, Escherichia coli str. K-12 substr. DH10b, UniProt P77555 1-349, looked up)
chain: B1 chain with F52Y
notes: (S)-ureidoglycolate dehydrogenase AllD, product of the allD gene of E. coli str; K-12 substr; DH10b; ordered residues in the crystals Met1 to Tyr337/Asn338 (subunit A); Homodimer; Cloned into a modified pET28b with a TEV site between the His-tag and the multicloning sites; also called EC 1.1.1.154; not shown: His-tag, N-terminal, cleaved
For B3, the “stoichiometry N” value [4] was 2, the Km (purified protein [3]) was 1.06 (0.08) mM and the kcat (purified protein [3]) was 57.1 s⁻¹. For the same molecule, the kcat/Km (purified protein [3]) was 54300 M⁻¹ s⁻¹, the Km (purified protein [5]) was 0.56 (0.04) mM and the kcat (purified protein [5]) was 62.4 s⁻¹. For the same molecule, the kcat/Km (purified protein [5]) was 110000 M⁻¹ s⁻¹.

B4: (S)-ureidoglycolate dehydrogenase (AllD) (Escherichia coli K-12; S43A) (protein)
chain: B1 chain with S43A, F52Y
notes: as for B1
B4 was tested, and the Km (purified protein [3]; His-tag kept) was 10.75 (1.01) mM, the kcat (purified protein [3]; His-tag kept) was 1.37 s⁻¹ and the kcat/Km (purified protein [3]; His-tag kept) was 130 M⁻¹ s⁻¹.

B5: (S)-ureidoglycolate dehydrogenase (AllD) (Escherichia coli K-12; D141N) (protein)
chain: B1 chain with F52Y, D141N
notes: as for B1
For B5, the Km (purified protein [3]; His-tag kept) was 5.84 (0.25) mM, the kcat (purified protein [3]; His-tag kept) was 1.97 s⁻¹ and the kcat/Km (purified protein [3]; His-tag kept) was 340 M⁻¹ s⁻¹.

B6: (S)-ureidoglycolate dehydrogenase (AllD) (Escherichia coli K-12; D141E) (protein)
chain: B1 chain with F52Y, D141E
notes: as for B1
With B6 the Km (purified protein [3]; His-tag kept) was 14.13 (2.37) mM, the kcat (purified protein [3]; His-tag kept) was 1.67 s⁻¹ and the kcat/Km (purified protein [3]; His-tag kept) was 120 M⁻¹ s⁻¹.

B7: (S)-ureidoglycolate dehydrogenase (AllD) (Escherichia coli K-12; D141A) (protein)
chain: B1 chain with F52Y, D141A
notes: as for B1
For B7, the Km (purified protein [3]; His-tag kept) was 5.27 (0.46) mM, the kcat (purified protein [3]; His-tag kept) was 1.62 s⁻¹ and the kcat/Km (purified protein [3]; His-tag kept) was 310 M⁻¹ s⁻¹.

B8: (S)-ureidoglycolate dehydrogenase (AllD) (Escherichia coli K-12; R259A) (protein)
chain: B1 chain with F52Y, R259A
notes: as for B1
For B8, the Km (purified protein [3]; His-tag kept) was 11.47 (1.25) mM, the kcat (purified protein [3]; His-tag kept) was 12 s⁻¹ and the kcat/Km (purified protein [3]; His-tag kept) was 1040 M⁻¹ s⁻¹. For the same molecule, the Km (purified protein [5]; His-tag kept) was 1.49 (0.07) mM, the kcat (purified protein [5]; His-tag kept) was 9.29 s⁻¹ and the kcat/Km (purified protein [5]; His-tag kept) was 6230 M⁻¹ s⁻¹.

B9: (S)-ureidoglycolate dehydrogenase (AllD) (Escherichia coli K-12; H44A) (protein)
chain: B1 chain with H44A, F52Y
notes: as for B1
For B9, the Km (purified protein [3]; His-tag kept) was 16.94 (2.04) mM, the kcat (purified protein [3]; His-tag kept) was 1.76 s⁻¹ and the kcat/Km (purified protein [3]; His-tag kept) was 100 M⁻¹ s⁻¹.

B10: (S)-ureidoglycolate dehydrogenase (AllD) (Escherichia coli K-12; M251A) (protein)
chain: B1 chain with F52Y, M251A
notes: as for B1
In the case of B10, the Km (purified protein [3]; His-tag kept) is reported as 13.15 (1.62) mM, the kcat (purified protein [3]; His-tag kept) is reported as 46 s⁻¹ and the kcat/Km (purified protein [3]; His-tag kept) is reported as 3490 M⁻¹ s⁻¹.
